The values below come from US9447149B2, “Methods and compositions for the rapid synthesis of radiometal-labeled probes” (University of Southern California, priority 2012, dated 2016).

In general, IC50 refers to the concentration that gives 50% inhibition. Read a high IC50 as lower potency. One may read the logP as the decadic logarithm of the partition coefficient of the neutral form, usually between octanol and water. Low values mean lower lipophilicity, high ones higher lipophilicity. For orientation: tissue uptake means the share of the injected amount in each gram of the tissue.

Data set [1] concerns the target T1, integrin αvβ3 (Homo sapiens, UniProt P05106+P06756).
T1 construct: host or cells: U87MG human glioblastoma cells (whole cells in suspension)
The experiment in a line: Integrin αvβ3 receptor binding assay (competitive displacement of 125I-echistatin on U87MG cells). The settings on record: 125I-echistatin radioligand, 3 h, room temperature. For orientation: In a radioligand displacement assay an active substance lowers the binding of a labelled ligand.

The nature of data set [2]: Probe stability in PBS by radio-HPLC. In kind it is physicochemical. The settings on record: for parent [64Cu]1 remaining (radiochemical purity): PBS, room temperature. As to the method: The in vitro stability of [^64Cu]1 was evaluated in PBS buffer by radio-HPLC. […] This high stability is attributed to Sar cage in the conjugate. In addition, it is known that the U87MG cell line over-expresses integrin αvβ3 receptor [13].
All chemicals and solvents were obtained from Aldrich (Milwaukee, Wis., USA) and used without further purification. 1,8-Diamino-3,6,10,13,16,19-hexaazabicyclo[6.6.6]-eicosine was purchased from Areva Med (Dallas, Tex.). ^125I-Echistatin was obtained from Perkin-Elmer (Waltham, Mass.). ^1H and ^13C nuclear magnetic resonance (NMR) were recorded on a Varian 400 MHz spectrometer. Mass spectrum was obtained on a ThermoElectron Finnigan LTQ mass spectrometer equipped with an electrospray ionization (ESI) source (Thermo Scientific, USA). HPLC analyses were carried out on an analytical reversed-phase high performance liquid chromatography (HPLC) system equipped with a dual UV absorbance detector (Waters 2487) using a phenomenex C18 RP (250×4.6 mm 5 micron). The flow was 1 mL/min, with the mobile phase starting from 100% solvent A (0.1% TFA in water), followed by a gradient mobile phase to 20% solvent A and 80% solvent B (0.1% TFA in acetonitrile) at 30 min. The UV absorbance was monitored at 214 nm and the identification of the peptides was confirmed based on the UV spectrum using a PDA detector. The radioactivity was detected by a model of Ludlum 2200 single-channel radiation detector. The stability study was performed under the same HPLC condition. MicroPET scans were performed on a microPET R4 rodent model scanner (Siemens Medical Solutions USA, Inc., Knoxyille, Tenn.). The scanner has a computer-controlled bed and 10.8-cm transaxial and 8-cm axial fields of view (FOVs). It has no septa and operates exclusively in the 3-dimensional (3D) list mode. Animals were placed near the center of the FOV of the scanner.
The stability of [^64Cu]1 was tested in PBS. In brief, 3.7 MBq of the [^64Cu]1 was pipetted into 0.5 mL of the PBS and incubated in PBS at room temperature. At various time points (1, 6, and 24 h), an aliquot of the solution was taken and the radiochemical purity was determined by reverse-phase HPLC under identical conditions. The parent [^64Cu]1 was determined to be >99%, 98%, and 96% at 1, 6, and 24 h, respectively.

The nature of data set [3]: Partition coefficient (1-octanol/PBS). In kind it is physicochemical. The settings on record: 1-octanol / PBS pH 7.4, triplicate. As to the method: The partition coefficient value was expressed as log P. Log P of [^64Cu]1 was determined by measuring the distribution of radioactivity in 1-octanol and PBS. Approximately 111 kBq of [^64Cu]1 in 2 μL of PBS (pH=7.4) was added to a vial containing 0.5 mL 1-octanol and 0.5 mL of PBS (pH=7.4). After vigorously vortexing for 10 min, the vial was centrifuged at 12,500 rpm for 5 min to ensure the complete separation of layers. 200 μL of each layer was pipetted into test tubes, and radioactivity was measured using a gamma counter (Perkin-Elmer Packard Cobra). The mean value was calculated from triplicate experiments. The log P value of [^64Cu]1 was determined to be […].

Data set [4] is described as follows: in vivo. Also on record: species or system mice. The settings on record: female, athymic nude, mouse, iv, 7.4 MBq, total radioactivity. As to the method:
(§1) The in vivo tumor-targeting efficacy of [^64Cu]1 was evaluated in nude mice bearing U87MG human glioma xenograft tumors (n=3) by static microPET scans at 2, 4, and 20 h after tail-vain injection of [^64Cu]1. U87MG tumors were clearly visualized at all time points examined. […] At 2 h post injection, the tumor/liver, tumor/kidneys, and tumor/muscle ratios reached 2.82±0.76, 2.22±1.49, and 11.79±2.65, respectively. Consequently, the high tumor-to-nontumor ratios provided excellent contrast for PET imaging. Blocking experiment was conducted to confirm the integrin αvβ3 specificity of [^64Cu]1.
(§2) All animal studies were approved by the University of Southern California Institutional Animal Care and Use Committee. Female athymic nude mice (about 4-6 weeks old, with a body weight of 20-25 g) were obtained from Harlan Laboratories (Livermore, Calif.). The U87MG human glioma xenograft model was generated by subcutaneous injection of 5×10^6 U87MG human glioma cells into the front flank of female athymic nude mice. The tumors were allowed to grow 3-5 weeks until 200-500 mm^3 in volume. Tumor growth was followed by caliper measurements of the perpendicular dimensions.
(§3) MicroPET scans and imaging analysis were performed using a rodent scanner (microPET R4 scanner; Siemens Medical Solutions). About 7.4 MBq of [^64Cu]1 was intravenously injected into each mouse (n=3) under isoflurane anesthesia. Five-minute static scans were acquired at 2, 4, and 20 h pi. The images were reconstructed by a two-dimensional ordered-subsets expectation maximum (OSEM) algorithm. For each microPET scan, regions of interest were drawn over the tumor, normal tissue, and major organs on the decay-corrected whole-body coronal images. The radioactivity concentration (accumulation) within the tumor, muscle, liver, and kidneys were obtained from the mean value within the multiple regions of interest and then converted to % ID/g.

Data set [5] has as its system U87MG human glioma xenograft tumors. The experiment in a line: in vivo. The settings on record: mouse, 10 mg/kg. Also on record: species or system mice. The protocol: as §1, §2, §3

`N=C(N)NCCC[C@@H]1NC(=O)[C@H](CCCCNC(=O)C2O[C@H](CNC(=O)Cn3nnc4c3-c3ccccc3CN(C(=O)CCNC(=O)CCOCCOCCOCCOCCOCCC(=O)N[C@]35CNCCNC[C@](N)(CNCCNC3)CNCCNC5)c3ccccc3-4)[C@H](O)C(O)[C@@H]2O)NC(=O)[C@@H](Cc2ccccc2)NC(=O)[C@H](CC(=O)O)NC(=O)CNC1=O` (stereo partly shown) [compound 1] showed an IC50 in data set [1] of 170 ± 3 nM.
On to `N=C(N)NCCC[C@@H]1NC(=O)[C@H](CCCCNC(=O)[C@H]2O[C@@H](CNC(=O)Cn3nnc4c3-c3ccccc3CN(C(=O)CCNC(=O)CCOCCOCCOCCOCCOCCC(=O)NC35CNCCNCC(N)(CNCCNC3)CNCCNC5)c3ccccc3-4)[C@H](O)[C@@H](O)[C@H]2O)NC(=O)[C@@H](Cc2ccccc2)NC(=O)[C@H](CC(=O)O)NC(=O)CNC1=O` [[^64Cu]1, metal not drawn], for which, in data set [2] (PBS buffer, over a period of 24 h, radio-HPLC), the “release of 64Cu from the conjugate” value is listed as “no release of ^64Cu from the conjugate”. Moreover, the “parent [64Cu]1 remaining (radiochemical purity)” value in data set [2] (1 h) is given as greater than 99%; in data set [2] (6 h), 98%; in data set [2] (24 h), 96%. In data set [3], this compound came in with a logP of 4.94 ± 0.1. Moreover, the tissue uptake at 2 h in data set [4] worked out at 4.96 ± 0.65 %ID/g. Besides, the tissue uptake at 4 h in data set [4] was found to be 4.11 ± 0.48 %ID/g. Also, the tissue uptake at 20 h in data set [4] was 2.41 ± 0.31 %ID/g. Moreover, the tissue to tissue ratio at 2 h stood at 2.22 ± 1.49 in data set [4] (tumor/kidneys ratio), 2.82 ± 0.76 in data set [4] (tumor/liver ratio) and 11.8 ± 2.65 in data set [4] (tumor/muscle ratio). Besides, the “uptake values of normal organs (liver, kidneys, muscle) with blocking” value in data set [5] is listed as “lower than those without coinjection of c(RGDyK)”.
